From US5731419

Target: glutathione reductase (Type III, Sigma)

remaining glutathione reductase activity after denaturation (percent of control) (% of control activity (-20° C., 1 µg/ml)) | remaining glutathione reductase activity after denaturation (percent of control) (scale: % of control activity) | Substance
40 |  | Wcs120 protein (50 kDa protein), expressed in E. coli from pET11a and purified
42 |  | WCOR410 protein, expressed from pET22b and purified with the His*Bind buffer kit
 | 71 | Bovine serum albumin (Pharmacia, DNase free 10 mg/ml) (from UniProt P02769)
